Reference: patent US20220251207A1 (JIANGSU ALPHAMAB BIOPHARMACEUTICALS, published 2022)

Experiments:
[1] = target: T1, human CTLA4 expressed on HEK293-CTLA4 cells (human, UniProt P16410 36-223); test: flow cytometry on HEK293-CTLA4 cells, MFI, four-parameter fit
T1 construct: whole, on cells; also called human CTLA4 on the cell surface
Method: 3% of BSA/PBS was used to adjust the density of HEK293-CTLA4 cells to 3×10⁶ cells/ml.
Then, APC-goat anti-mouse IgG at a dilution of 1:100 was used, and placed on ice for 30 min for reaction. After that, they were washed with 1% of BSA/PBS and resuspended, and then detected on a FACS machine (using a Guava EasyCyte instrument).
The flow cytometry results were analyzed by Guava 5.3.1 to calculate the mean fluorescence intensity (MFI) of the detected samples. The log values of the obtained MFI versus the concentrations of the samples were calculated, and the experimental results were fit with four parameters using GraphPad Prism 6.0.

[2] = target: T1, human CTLA4 expressed on HEK293-CTLA4 …; test: competitive flow cytometry; taken as HEK293-CTLA4 cells with CD86-muFc as the blocked ligand, from the order of paragraph 274 and paragraph 275; the panel has no title
[3] = target: CTLA4-muFc (fusion protein of human CTLA4 and mouse Fc) (human); test: competitive flow cytometry; taken as CTLA4-muFc with human CD86 on HEK293-CD86 cells as the blocked ligand, from the order of paragraph 274 and paragraph 275; the panel has no title

B1: KN044 (VHH)
VHH: QVQLVESGGGLVQPGGSLRLSCAASGYIYSAYCMGWFRQAPGKGLEGVAAIYIGGGSTYYADSVKGRFTISRDNSKNTLYLQMNSLRAEDTAVYYCAADVIPTETCLGGSWSGPFGYWGQGTLVTVSS
For B1, the EC50 [1] was 2.01 nM, the “IC50 (read off the curve)” value [2] was roughly 8 nM and the “IC50 (read off the curve)” value [3] was roughly 10 nM.
